Data set [1] concerns the molecule itself. Description: sucrose density gradient centrifugation.
For data set [2], the target named is T1, Escherichia coli inclusion body-associated protein B (E. coli, UniProt P0C058 1-142).
T1 sequence: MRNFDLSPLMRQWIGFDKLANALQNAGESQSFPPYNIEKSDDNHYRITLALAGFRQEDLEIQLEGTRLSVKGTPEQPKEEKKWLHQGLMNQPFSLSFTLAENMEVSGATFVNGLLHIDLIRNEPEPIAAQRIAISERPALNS
In words: sucrose density gradient centrifugation.

Numbering of substitutions follows the chain as printed. Names may count otherwise.

B1: Escherichia coli inclusion body-associated protein A, wild type (natural protein)
chain: MRNFDLSPLYRSAIGFDRLFNHLENNQSQSNGGYPPYNVELVDENHYRIAIAVAGFAESELEITAQDNLLVVKGAHADEQKERTYLYQGIAERNFERKFQLAENIHVRGANLVNGLLYIDLERVIPEAKKPRRIEIN
Regarding B1, the binding result in data set [1] and in data set [2] was “binds” in each case.

B2: Escherichia coli IbpA R93A mutant (natural protein)
chain: B1 chain with R93A
As for B2, the binding result in data set [1] and in data set [2] was “binds” in each case.

(Values after doi:10.1101/2023.04.26.538363 (bioRxiv, 2023).)
